Assay results reported in the supplement of paper PMC9170038.

Test system: MS2 coat protein
Experiment: apparent KD of MS2 coat protein; higher = weaker reporter binding
Details: Eterna round: R107
Outline: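 The designed RNA switches were transcribed on-chip from Illumina sequencing clusters. In 100 mM Tris-HCl pH 7.5, 80 mM KCl and 4 mM MgCl2, without or with constant ligand, they were titrated with SNAP-549-labelled MS2 coat protein from 0.7 or 1.5 nM to 3 µM in twofold steps. Apparent KD is the per-design median of normalised cluster binding-curve fits.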

[1] = input ligand: theophylline 20 uM
[2] = input ligand: theophylline 2 mM
[3] = input ligand: tryptophan 2.4 mM

## GACCGAUUAUAGUGCGAUUCUCUUGUGGAAGGAGCGCAGAGGACUGCAGGUAGGUCGCCACAUGAGGAUCACCCAUGUCAGGAUA [Esxebiat]
Input ligand: arginine 13.2 mM
  apparent KD of MS2 coat protein: 65.6 nM
Input ligand: none
  apparent KD of MS2 coat protein: 183 nM
[1]
  apparent KD of MS2 coat protein: 89.6 nM
[2]
  apparent KD of MS2 coat protein: 708 nM
[3]
  apparent KD of MS2 coat protein: 10.6 nM

## AACAUGAGGAUCACCCAUGUGUCCUCGAAACGAGGACCGGUACGGCCGCCACUCGAAGCAUGUUGACGAAAAGUCAGCAUGCAAA [Mat - Exclusion - Trytophan A - D14]
Input ligand: arginine 13.2 mM
  apparent KD of MS2 coat protein: 96.4 nM
[1]
  apparent KD of MS2 coat protein: 292 nM
[2]
  apparent KD of MS2 coat protein: 353 nM

## AAUAACAUGAGGAUCACCCAUGUAAAAGAUACCAGAGUGAUGAUCCUCCCUUGGCAGCUUAAACGCUAUUGGAAACAAUAGCGAA [Mat - Same State Theophlline A - Mod of Eli - D3]
Input ligand: arginine 13.2 mM
  apparent KD of MS2 coat protein: 54.5 nM
[1]
  apparent KD of MS2 coat protein: 163 nM
[3]
  apparent KD of MS2 coat protein: 57.7 nM

## AGUGGGUGUUAUGAUACCAGCGUAAUACACAACAUGAGGAUCACCCAUGUGGAGCCUCGCCGCCCUUGGCAGCAUUGGGCCCGCA [theeternabot_sameState_MS2_Theo_B_4]
Input ligand: arginine 13.2 mM
  apparent KD of MS2 coat protein: 115 nM
[1]
  apparent KD of MS2 coat protein: 237 nM
[3]
  apparent KD of MS2 coat protein: 223 nM

## AGUAAUCUAUCAGAUACCAGACCCUCUUUAACAUGAGGAUCACCCAUGUCUAUGUUCUACGUCCCUUGGCAGCUGUAAAUGAUAA [JR_SSTheophyB_Sub002]
Input ligand: arginine 13.2 mM
  apparent KD of MS2 coat protein: 34.9 nM
[1]
  apparent KD of MS2 coat protein: 80 nM
[3]
  apparent KD of MS2 coat protein: 57.7 nM

## UUGGGUAUGCGAAGGAGCGGGAAAUAUAUAUAUAUAAUCCUAACAUGAGGAUCACCCAUGUCCCAGGUAGGUCGCGCAUAUUUGG [12.J]
Input ligand: arginine 13.2 mM
  apparent KD of MS2 coat protein: 40.6 nM
Input ligand: none
  apparent KD of MS2 coat protein: 62.9 nM
[1]
  apparent KD of MS2 coat protein: 88.9 nM
[2]
  apparent KD of MS2 coat protein: 106 nM
[3]
  apparent KD of MS2 coat protein: 67.8 nM

## ACGAACGAUAGUGAUACCAGACGUACAUGAGGAUCACCCAUGUUAUACACAUGGUUUAUUGUCCCUUGGCAGCACGAUAAGUUCG [JR_ExcTheophyB_Sub004]
Input ligand: arginine 13.2 mM
  apparent KD of MS2 coat protein: 109 nM
[1]
  apparent KD of MS2 coat protein: 263 nM
[3]
  apparent KD of MS2 coat protein: 282 nM

## CAUACUUUAGUAUGUUAUGUGGACAGUGAUACCAGAUACGAAAGUAUCCCUUGGCAGCACAACAUGAGGAUCACCCAUGUAUUUU [Theophylline A 4]
Input ligand: arginine 13.2 mM
  apparent KD of MS2 coat protein: 25.8 nM
[1]
  apparent KD of MS2 coat protein: 22.2 nM
[3]
  apparent KD of MS2 coat protein: 21.5 nM

## AUAUCUUCCACGGCCGCCACUGAAUGGUGCCCAAGGUCGAUCGCAGACAUGAGGAUCACCCAUGUCAGGACCGGGUGGUACUACG [theeternabot_exclusion_MS2_Trp_B_23]
Input ligand: arginine 13.2 mM
  apparent KD of MS2 coat protein: 16.1 nM
[1]
  apparent KD of MS2 coat protein: 16.5 nM
[2]
  apparent KD of MS2 coat protein: 15.7 nM

## UGGGUACAUGAGGAUCACCCAUGUACUGAAGGAGCGAGAAAUAUCUCAGGUAGGUCGCAGACAUGAGGAUCACCCAUGUAGUAGG [Exclusion Arginine A GF 11]
Input ligand: arginine 13.2 mM
  apparent KD of MS2 coat protein: 29.5 nM
Input ligand: none
  apparent KD of MS2 coat protein: 28.1 nM
[1]
  apparent KD of MS2 coat protein: 31.8 nM
[2]
  apparent KD of MS2 coat protein: 33.1 nM
[3]
  apparent KD of MS2 coat protein: 26.7 nM

## AUCCACAGCCGAAGGAGCGCAGUAGGAUGACAUGAGGAUCACCCAUGUGUGUGAUGUGGAUUGCAGGUAGGUCGCGGAGUGGAUU [Exclusion - Arginine B (Freestyle 9)]
Input ligand: arginine 13.2 mM
  apparent KD of MS2 coat protein: 165 nM
Input ligand: none
  apparent KD of MS2 coat protein: 54.5 nM
[1]
  apparent KD of MS2 coat protein: 82 nM
[2]
  apparent KD of MS2 coat protein: 60.1 nM
[3]
  apparent KD of MS2 coat protein: 46.4 nM

## UUGAUUACCCAAGCGUGAUGGUCCUAGGAACGAGGACCGGUACGGCCGCCACUCGCAAGCAAACAUGAGGAUCACCCAUGUUUAU [theeternabot_exclusion_MS2_Trp_A_19]
Input ligand: arginine 13.2 mM
  apparent KD of MS2 coat protein: 11.2 nM
[1]
  apparent KD of MS2 coat protein: 15.9 nM
[2]
  apparent KD of MS2 coat protein: 14.1 nM

## AAAUGAAGGCGAAGGAGCGCGAACAUGAGGAUCACCCAUGUGUAUGUAUGUAGUCAUGUAUCGCAGGUAGGUCGCGCUGUUACAU [Exclusion Arginine B]
Input ligand: arginine 13.2 mM
  apparent KD of MS2 coat protein: 106 nM
Input ligand: none
  apparent KD of MS2 coat protein: 278 nM
[1]
  apparent KD of MS2 coat protein: 276 nM
[2]
  apparent KD of MS2 coat protein: 352 nM
[3]
  apparent KD of MS2 coat protein: 271 nM

## AAUAAGAGCUCGGAUACCAGCGAAAACAGGCACAUGAGGAUCACCCAUGUUAACGCACUGCGCCCUUGGCAGCCGCACGUGUGUC [theeternabot_sameState_MS2_Theo_B_39]
Input ligand: arginine 13.2 mM
  apparent KD of MS2 coat protein: 19.6 nM
[1]
  apparent KD of MS2 coat protein: 25.4 nM
[3]
  apparent KD of MS2 coat protein: 22 nM

## AACAUCACAACGGCCGCCACUGCACAUGACAACAUGAGGAUCACCCAUGUGGAUCACCCAUGUCCCAGGACCGGGUUAUGAGGAU [Same State - Tryptophan B #1]
Input ligand: arginine 13.2 mM
  apparent KD of MS2 coat protein: 23.7 nM
[1]
  apparent KD of MS2 coat protein: 39.9 nM
[2]
  apparent KD of MS2 coat protein: 33.6 nM

## GGCACCAGGAGAAGGAGCGUGAAGACAUGAGGAUCACCCAUGUAGAGGCCCGUACUGGGUUCGCAGGUAGGUCGCUCCUGGUGCC [#1 Same State - Arginine B Attempt #13 (HarryS)]
Input ligand: arginine 13.2 mM
  apparent KD of MS2 coat protein: 22.1 nM
Input ligand: none
  apparent KD of MS2 coat protein: 22.9 nM
[1]
  apparent KD of MS2 coat protein: 39.2 nM
[2]
  apparent KD of MS2 coat protein: 28.7 nM
[3]
  apparent KD of MS2 coat protein: 29.9 nM

## ACGAACGAUAGUGAUACCAGACGAACAUGAGGAUCACCCAUGUUAUACACAUGGUUUAUUGUCCCUUGGCAGCACUUUAAGUUCG [JR_ExcTheophyB_Sub006]
Input ligand: arginine 13.2 mM
  apparent KD of MS2 coat protein: 80.1 nM
[1]
  apparent KD of MS2 coat protein: 139 nM
[3]
  apparent KD of MS2 coat protein: 146 nM

## UGGAGAUAGACGGCCGCCACUAACAUGAGGAUCACCCAUGUCGUCACGAAUGGAUGGCCCUAGAAUAGGACCGGGUCCGGAUUCA [theeternabot_exclusion_MS2_Trp_B_48]
Input ligand: arginine 13.2 mM
  apparent KD of MS2 coat protein: 23.7 nM
[1]
  apparent KD of MS2 coat protein: 42.5 nM
[2]
  apparent KD of MS2 coat protein: 50.6 nM

## CUCUCAUGAACAUGAGGAUCACCCAUGUAACGAGGACCGGUACGGCCGCCACUCGAACGUGGAAACCAAUCGAGUGAGGUGGGAG [Tryp A Ex t5b]
Input ligand: arginine 13.2 mM
  apparent KD of MS2 coat protein: 45.9 nM
Input ligand: none
  apparent KD of MS2 coat protein: 116 nM
[1]
  apparent KD of MS2 coat protein: 98.4 nM
[2]
  apparent KD of MS2 coat protein: 119 nM
[3]
  apparent KD of MS2 coat protein: 352 nM

## AGCUCGCGUCCUCAAGCGUCAAAGACGCGUCGAGGACCGGUACGGCCGCCACUCGACCUGAGGAUCACCCAGGUUUAAGCGAGCA [TrypAX 6 #SwitchBubble #AlternativeMS2 #MS2Late #CuTurnoff]
Input ligand: arginine 13.2 mM
  apparent KD of MS2 coat protein: 12.7 nM
Input ligand: none
  apparent KD of MS2 coat protein: 17.8 nM
[1]
  apparent KD of MS2 coat protein: 20 nM
[2]
  apparent KD of MS2 coat protein: 18.1 nM
[3]
  apparent KD of MS2 coat protein: 115 nM

## AAUAAUAAGGCGGCCGCCACUAAACAUGAGGAUCACCCAUGUCUCGAGCGCAUACAUAAGGGAUGUAGGACCGGGCCAAUAAUAA [Exclusion - Tryptophan B (Freestyle 1)]
Input ligand: arginine 13.2 mM
  apparent KD of MS2 coat protein: 19 nM
Input ligand: none
  apparent KD of MS2 coat protein: 23.5 nM
[1]
  apparent KD of MS2 coat protein: 25.7 nM
[2]
  apparent KD of MS2 coat protein: 23 nM
[3]
  apparent KD of MS2 coat protein: 21.3 nM

## UGACAUUGCUCAGAUACCAGACAUGAGCAUCAGCCAUGUACCAAGAGUACAUGUUAAAAUGUCCCUUGGCAGCUGAGCAAUGUCU [Mod of Eli's TheoBX5 #AlternateMS2 v2]
Input ligand: arginine 13.2 mM
  apparent KD of MS2 coat protein: 73.6 nM
Input ligand: none
  apparent KD of MS2 coat protein: 67.6 nM
[1]
  apparent KD of MS2 coat protein: 203 nM
[2]
  apparent KD of MS2 coat protein: 452 nM
[3]
  apparent KD of MS2 coat protein: 60.1 nM

## UACACAUGACAUGAUACCAGCCCAUGUGAACAUGAGGAUCACCCAUGUAUGAGGACAUGAGGCCCUUGGCAGCAUGUAUACAUGA [Same State Theophylline B 2]
Input ligand: arginine 13.2 mM
  apparent KD of MS2 coat protein: 11.6 nM
[1]
  apparent KD of MS2 coat protein: 12.7 nM
[3]
  apparent KD of MS2 coat protein: 11.4 nM

## UACUUGCUGACGGCCGCCACUAGAACAUGAGGAUCACCCAUGUACCCGGUCCUACAUGGGAUGACUAGGACCGGGUCAGCAAGAU [(Trp1)-(Ms2)-(T)'-(M)'-(Trp2)_Design3]
Input ligand: arginine 13.2 mM
  apparent KD of MS2 coat protein: 39.6 nM
[1]
  apparent KD of MS2 coat protein: 72.4 nM
[2]
  apparent KD of MS2 coat protein: 68.5 nM

## UUAGAUAUGACAGAUACCAGCGUGUUGUUGAACAUGAGGAUCACCCAUGUAGUGAUCGAGCGCCCUUGGCAGCUGGUGUGUUUGG [7.Q]
Input ligand: arginine 13.2 mM
  apparent KD of MS2 coat protein: 77.6 nM
[1]
  apparent KD of MS2 coat protein: 174 nM
[3]
  apparent KD of MS2 coat protein: 225 nM

## AGCGACAUGCGUGAUACCAGCUACAUGAGGAUCACCCAUGUACGUCAGAAAUGACUGUGUAGCCCUUGGCAGCAUAGUGCAUGUC [Exclusion - Theophylline B (Freestyle 20)]
Input ligand: arginine 13.2 mM
  apparent KD of MS2 coat protein: 34.6 nM
[1]
  apparent KD of MS2 coat protein: 54.2 nM
[3]
  apparent KD of MS2 coat protein: 34.8 nM

## GUUGGAUGCUCGGCCGCCACUGAGAGAGUCAUGUGAACAUGAGGAUCACCCAUGUAAUAUAUAUACAGGACCGGGAGUGUUGUAA [4.J]
Input ligand: arginine 13.2 mM
  apparent KD of MS2 coat protein: 19.7 nM
Input ligand: none
  apparent KD of MS2 coat protein: 19.5 nM
[1]
  apparent KD of MS2 coat protein: 50.6 nM
[2]
  apparent KD of MS2 coat protein: 25 nM
[3]
  apparent KD of MS2 coat protein: 13.3 nM

## GGAAACCAAAGCGAUACCAGCGUACAUGAAAAGAGCGAAAACAUGAGGAUCACCCAUGUACGCCCUUGGCAGCGCAAAACCAAGG
Input ligand: arginine 13.2 mM
  apparent KD of MS2 coat protein: 21.4 nM
Input ligand: none
  apparent KD of MS2 coat protein: 44.3 nM
[1]
  apparent KD of MS2 coat protein: 50.8 nM
[2]
  apparent KD of MS2 coat protein: 103 nM
[3]
  apparent KD of MS2 coat protein: 33.3 nM
